Values quoted from earlier work, collected in publication PMC3091359.

Biological target: (Pro)renin (Homo sapiens) (UniProt P00797)
Sequence of UniProt P00797 (P00797 67-406): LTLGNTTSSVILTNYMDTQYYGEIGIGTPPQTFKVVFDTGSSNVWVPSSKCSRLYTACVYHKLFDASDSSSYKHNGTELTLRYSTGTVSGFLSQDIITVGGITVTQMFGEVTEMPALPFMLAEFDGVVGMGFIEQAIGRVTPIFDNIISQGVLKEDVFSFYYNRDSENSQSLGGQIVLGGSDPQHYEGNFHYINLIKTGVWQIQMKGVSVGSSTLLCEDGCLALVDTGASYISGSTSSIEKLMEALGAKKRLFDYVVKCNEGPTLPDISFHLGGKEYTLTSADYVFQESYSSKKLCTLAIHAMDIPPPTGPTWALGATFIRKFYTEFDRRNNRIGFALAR

- Kd: 3.7 nM
Substance: (Pro)renin receptor (from UniProt Q6AXS4)
